*1 amine or outer side, *2 acyl side, *3 side chain or, on linkers, in order; H or OH if unused. Where no end group is shown, it is not given here. [ ]: non-standard residue; d: D form. NH(CH2)3(OCH2CH2)2O(CH2)3NH = C(CN[*:1])COCCOCCOCCCN[*:2]
Tests used:
HERG channel = HERG channel (UniProt Q12809 1-1159, limits assumed); assay: cell-based or functional assay
human plasma = assay: equilibrium dialysis (HTD-96, 12-14 kD cut-off), 5 µM A01 in undiluted human plasma, 6 h at 37 °C, LC/MS/MS
mouse plasma = assay: equilibrium dialysis (HTD-96, 12-14 kD cut-off), 5 µM A01 in undiluted mouse plasma, 6 h at 37 °C, LC/MS/MS

Sequence of HERG channel (Q12809 whole entry): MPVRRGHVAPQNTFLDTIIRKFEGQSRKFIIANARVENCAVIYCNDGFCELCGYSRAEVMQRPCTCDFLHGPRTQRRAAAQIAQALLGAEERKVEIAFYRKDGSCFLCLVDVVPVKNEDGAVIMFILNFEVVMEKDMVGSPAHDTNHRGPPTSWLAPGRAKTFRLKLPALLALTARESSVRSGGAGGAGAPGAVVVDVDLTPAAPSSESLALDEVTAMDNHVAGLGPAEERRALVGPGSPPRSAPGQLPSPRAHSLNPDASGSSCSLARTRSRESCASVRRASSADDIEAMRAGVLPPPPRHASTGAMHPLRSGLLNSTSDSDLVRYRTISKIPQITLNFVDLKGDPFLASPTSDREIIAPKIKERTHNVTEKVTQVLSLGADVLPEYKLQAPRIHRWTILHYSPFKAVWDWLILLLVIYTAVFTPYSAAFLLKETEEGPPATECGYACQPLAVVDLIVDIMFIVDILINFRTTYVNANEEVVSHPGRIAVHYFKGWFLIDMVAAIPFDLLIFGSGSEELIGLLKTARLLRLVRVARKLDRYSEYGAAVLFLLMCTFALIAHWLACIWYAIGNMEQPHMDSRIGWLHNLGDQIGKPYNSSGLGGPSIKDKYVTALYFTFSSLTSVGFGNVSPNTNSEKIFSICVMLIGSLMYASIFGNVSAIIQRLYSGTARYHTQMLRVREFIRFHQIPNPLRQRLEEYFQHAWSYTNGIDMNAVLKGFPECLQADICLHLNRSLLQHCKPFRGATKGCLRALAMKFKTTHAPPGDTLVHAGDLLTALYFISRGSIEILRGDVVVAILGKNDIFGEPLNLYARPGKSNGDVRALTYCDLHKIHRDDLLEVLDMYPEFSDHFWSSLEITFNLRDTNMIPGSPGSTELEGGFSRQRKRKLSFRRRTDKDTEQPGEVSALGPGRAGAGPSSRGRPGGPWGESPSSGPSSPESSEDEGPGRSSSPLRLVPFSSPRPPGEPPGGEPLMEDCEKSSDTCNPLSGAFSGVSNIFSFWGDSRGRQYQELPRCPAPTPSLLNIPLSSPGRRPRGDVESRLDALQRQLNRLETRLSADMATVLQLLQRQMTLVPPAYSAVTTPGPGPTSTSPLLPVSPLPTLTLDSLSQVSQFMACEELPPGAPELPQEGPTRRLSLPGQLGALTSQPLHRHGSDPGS

PEG5000-RMKFDVWDLYFEIVW-NH2 [A16 (PEG5000-RMKFDVWDLYFEIVW-NH2)] was tested, and the “HERG inhibition patch-clamp (% Inhibition of Tail Current at 1 µM)” value (HERG channel) was 22.2%.

Ac-WDLYFEIVW[NH(CH2)3(OCH2CH2)2O(CH2)3NH]E [A07 (Ac-WDLYFEIVW-ttds-E)] was tested, and the “HERG inhibition Rb+ efflux (% Inhibition at 10 µM)” value (HERG channel) was -3.4%.

With ERMEFDVWDLYFEIVW-NH2 [A09 (ERMEFDVWDLYFEIVW-NH2)] the “HERG inhibition Rb+ efflux (% Inhibition at 10 µM)” value (HERG channel) was -1.6%.

B1: B03 (Ac-cimfwydeye-NH2) (peptide)
peptide: Ac-[dC][dI][dM][dF][dW][dY][dD][dE][dY][dE]-NH2
SMILES: CC[C@@H](C)[C@@H](NC(=O)[C@@H](CS)NC(C)=O)C(=O)N[C@H](CCSC)C(=O)N[C@H](Cc1ccccc1)C(=O)N[C@H](Cc1c[nH]c2ccccc12)C(=O)N[C@H](Cc1ccc(O)cc1)C(=O)N[C@H](CC(=O)O)C(=O)N[C@H](CCC(=O)O)C(=O)N[C@H](Cc1ccc(O)cc1)C(=O)N[C@H](CCC(=O)O)C(N)=O
For B1, the “HERG inhibition Rb+ efflux (% Inhibition at 10 µM)” value (HERG channel) was -2.1% and the “HERG inhibition patch-clamp (% Inhibition of Tail Current at 1 µM)” value (HERG channel) was 84.5%.

With Ac-RMKFDVWDLYFEIVW-NH2 [A01 (Ac-RMKFDVWDLYFEIVW-NH2)] the “HERG inhibition patch-clamp (% Inhibition of Tail Current at 1 µM)” value (HERG channel) was 16.5%.

In the case of Ac-WDLYFEIVWE [A06 (Ac-WDLYFEIVWE)], the “HERG inhibition Rb+ efflux (% Inhibition at 10 µM)” value (HERG channel) is reported as -6.4%.

Ac-PMKFDVWDLYFEIVW-NH2 [A02 (Ac-PMKFDVWDLYFEIVW-NH2)] was tested, and the “HERG inhibition Rb+ efflux (% Inhibition at 10 µM)” value (HERG channel) was -3.3%.

With Ac-RMKFDVWDLYFEIVW-NH2 [A01 (Ac-…-NH2)] the Average % Bound (human plasma) was > 98.3% and the Average % Bound (mouse plasma) was > 99.2%.

In the case of Ac-WDLYFEIVW-NH2 [A05 (Ac-WDLYFEIVW-NH2)], the “HERG inhibition patch-clamp (% Inhibition of Tail Current at 1 µM)” value (HERG channel) is reported as 14.5%.

Source: patent US20100022445A1 (BAXALTA, published 2010)
